Test results as given in patent US10005846B2, “Anti-transglutaminase 2 antibodies” (MEDICAL RESEARCH COUNCIL TECHNOLOGY, priority 2012, dated 2018).

T1: human TG2 (Homo sapiens, UniProt P21980)
T1 sequence (P21980 1-687): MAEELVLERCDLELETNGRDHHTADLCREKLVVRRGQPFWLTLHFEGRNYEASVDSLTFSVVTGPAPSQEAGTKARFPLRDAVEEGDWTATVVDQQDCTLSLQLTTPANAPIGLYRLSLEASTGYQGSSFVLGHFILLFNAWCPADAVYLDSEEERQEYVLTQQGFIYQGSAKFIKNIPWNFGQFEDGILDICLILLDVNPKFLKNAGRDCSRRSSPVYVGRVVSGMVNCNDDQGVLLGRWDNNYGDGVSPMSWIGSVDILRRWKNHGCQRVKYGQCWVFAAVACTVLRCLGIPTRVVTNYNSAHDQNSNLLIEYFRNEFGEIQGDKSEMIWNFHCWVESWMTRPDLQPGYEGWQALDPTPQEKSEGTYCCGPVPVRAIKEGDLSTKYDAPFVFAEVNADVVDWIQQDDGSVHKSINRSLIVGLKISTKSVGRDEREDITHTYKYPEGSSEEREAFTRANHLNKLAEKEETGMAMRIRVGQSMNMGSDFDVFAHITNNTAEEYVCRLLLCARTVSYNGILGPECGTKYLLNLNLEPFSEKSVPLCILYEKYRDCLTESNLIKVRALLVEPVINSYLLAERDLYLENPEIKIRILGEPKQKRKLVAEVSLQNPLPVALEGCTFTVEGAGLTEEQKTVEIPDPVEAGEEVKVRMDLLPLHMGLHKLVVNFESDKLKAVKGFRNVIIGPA

T2: extracellular TG2 in human HK-2 cells (Homo sapiens, UniProt P21980)
T2 construct: endogenous in cells; host or cells: HK-2 (kidney proximal tubular epithelium)
T2 sequence (P21980 1-687): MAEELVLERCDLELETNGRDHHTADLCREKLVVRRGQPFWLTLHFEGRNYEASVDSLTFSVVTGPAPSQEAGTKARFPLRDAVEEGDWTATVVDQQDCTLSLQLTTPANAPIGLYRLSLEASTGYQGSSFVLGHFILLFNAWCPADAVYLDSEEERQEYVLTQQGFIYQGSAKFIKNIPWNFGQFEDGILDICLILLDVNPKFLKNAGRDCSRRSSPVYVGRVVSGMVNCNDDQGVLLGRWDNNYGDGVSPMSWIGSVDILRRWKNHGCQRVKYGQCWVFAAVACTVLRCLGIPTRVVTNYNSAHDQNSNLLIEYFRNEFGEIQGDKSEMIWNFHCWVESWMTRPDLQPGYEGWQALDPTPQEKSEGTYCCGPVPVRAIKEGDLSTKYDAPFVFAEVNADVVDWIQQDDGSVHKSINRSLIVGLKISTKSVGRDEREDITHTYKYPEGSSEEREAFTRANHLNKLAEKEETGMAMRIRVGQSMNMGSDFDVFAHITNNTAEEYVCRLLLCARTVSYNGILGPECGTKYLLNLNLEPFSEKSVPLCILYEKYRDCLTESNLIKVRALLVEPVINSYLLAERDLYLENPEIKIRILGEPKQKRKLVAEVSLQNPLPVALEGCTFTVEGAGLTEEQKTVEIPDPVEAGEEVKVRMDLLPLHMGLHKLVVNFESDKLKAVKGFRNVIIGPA

T3: TG2 activity in HepG2 cell homogenate (Homo sapiens, UniProt P21980)
T3 construct: endogenous in cells; host or cells: HepG2
T3 sequence (P21980 1-687): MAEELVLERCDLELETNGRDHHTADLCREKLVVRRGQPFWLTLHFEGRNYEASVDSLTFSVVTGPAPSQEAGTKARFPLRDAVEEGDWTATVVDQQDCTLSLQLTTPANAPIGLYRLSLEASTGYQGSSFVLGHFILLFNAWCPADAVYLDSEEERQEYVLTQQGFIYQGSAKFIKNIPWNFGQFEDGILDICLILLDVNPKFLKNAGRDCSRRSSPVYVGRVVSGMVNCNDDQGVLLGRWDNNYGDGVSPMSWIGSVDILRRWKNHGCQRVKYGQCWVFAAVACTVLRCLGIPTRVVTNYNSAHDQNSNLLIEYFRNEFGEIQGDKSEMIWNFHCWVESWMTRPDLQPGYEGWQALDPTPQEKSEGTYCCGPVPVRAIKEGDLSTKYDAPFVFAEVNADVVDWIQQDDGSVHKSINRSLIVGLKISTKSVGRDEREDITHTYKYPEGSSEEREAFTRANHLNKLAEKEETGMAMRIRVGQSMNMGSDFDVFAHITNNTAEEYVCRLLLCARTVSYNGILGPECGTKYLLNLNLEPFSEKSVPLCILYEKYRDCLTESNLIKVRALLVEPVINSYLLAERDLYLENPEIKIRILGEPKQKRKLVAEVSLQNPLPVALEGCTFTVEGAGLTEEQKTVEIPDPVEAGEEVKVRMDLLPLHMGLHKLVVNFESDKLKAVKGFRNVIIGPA


Experiments:
human TG2 = biological target: T1, human TG2; assay: 3H-putrescine incorporation TG activity assay with recombinant human TG2; format: biochemical; conditions: for hybridoma supernatant ability to inhibit TG2 activity: initial screen of conditioned medium, 100 ng of TG2
Method: To determine an IC50 value for each antibody against human, rat and mouse the ^3H Putrescine assay was used. 100 ng of human TG2 or 25 ng of mouse and rat TG2 was used to generate a reaction where approximately 3000 cpm of Putrescine were incorporated per hour in 10 ul of the reaction mixture. Serial dilutions of each antibody were then applied starting from adding 500 ng (5 ug/ml final concentration) to the reaction mixture and incubated with the TG2 for 20 minutes prior to activating the reaction. IC50 values were calculated by determining the concentration at which the enzymatic rate of reaction was reduced by 50% using an appropriate curve fit in graphpad prism. Values are expressed as the amount of IgG in […] in the reaction that would inhibit 1 ng of TG2.
TG activity is measured by the Ca^2+ dependent incorporation of ^3H-putrescine into N′,N′-dimethylcasein. Recombinant human TG2 (100 ng) was pre-incubated for twenty minutes at room temperature with the test sample (conditioned medium or purified IgG) before starting the reaction. Twenty-five μl of reaction mix (5 μl of 25 mM CaCl2, 5 μl of 40 mM dithiothreitol, 5 μl ^3H-putrescine mix, and 10 μl 25 mg/ml of N,N′ dimethylcasein (replace 25 mM CaCl2 with 100 mM EDTA for a non-enzymatic control) was added to start the reaction and the samples incubated at 37° C. for up to 1 hour. Aliquots of 10 μl were spotted onto a strip of 3 MM Whatman filter paper and plunged immediately into ice-cold 10% trichloroacetic acid (TCA) in order to precipitate the cross-linked proteins typically at time 0, 10, 30 and 60 minutes into the reaction. After three extensive washes in ice-cold 5% TCA followed by 3 rinses with ice-cold 95% ethanol, the air dried filter was counted in 2 ml of scintillation fluid (Ultima Gold Packard, Perkin Elmer). The rate of reaction was calculated. 1 TG unit is equivalent to the incorporation of 1 nmol of putrescine per hour at 37° C.

[1] = biological target: T2, extracellular TG2 in human HK-2 cells; assay: Extracellular TG activity in HK-2 cells, biotin cadaverine incorporation into fibronectin (Example 1); format: cell-based
Method: HK2 cells were plated onto fibronectin and incubated for 2 hours in the presence of 0.1M biotin cadaverine with either 4 ng/μl of human anti-TG2 antibody (AB1) (part A), 4 ng/μl of human anti-TG2 antibody (DC1) (part B) or 400 μM of the site-specific pan TG inhibitor 1,3-Dimethyl-2-[(2-oxo-propyl)thio]imidazolium chloride. […] Changes in optical density were measured at 450 nm in a 96 well plate reader. Data represents mean OD at 450 nm corrected to 1 mg of cell protein. n=6 wells per experimental group.
Extracellular TG activity was measured by modified cell ELISA. HK-2 epithelial cells were harvested using 0.1M EDTA or 0.25% trypsin/EDTA and plated at a density of 8×10^4 cells/well in serum free medium onto a 96 well plate that had been coated overnight with 100 μl/well of fibronectin (5 μg/ml in 50 mM Tris-HCl pH 7.4) (Sigma, Poole UK). Cells were allowed to attach for 2.5 h at 37° C. in the presence of the 0.1 mM biotin cadaverine [N-(5 amino pentyl biotinamide) trifluoroacetic acid] (Molecular Probes, Eugene Oreg., USA). Plates were washed twice with 3 mM EDTA/PBS and cells removed with 0.1% (w/v) deoxycholate in 5 mM EDTA/PBS. The supernatant was collected and used for protein determination. […] The reaction was stopped with 50 μl 2.5 M H2SO4 and the absorbance read at 450 nm.

[2] = biological target: T3, TG2 activity in HepG2 cell homogenate; assay: 3H putrescine incorporation TG activity assay in HepG2 cell homogenate; format: biochemical
Method: A: Hep2G cells were lysed and 45 ug of protein mixed with 750 ng of IgG from AB1, DH2, DD9, BB7, DC1 and EH6 for 20 minutes. This was subsequently assayed using the ^3H Putrescine incorporation TG activity assay with sampling over 1 hour. The rate of reaction was calculated and expressed as a percentage of the same lysate incubated with a random antibody (MAB002). Data represents the mean percentage inhibition ±SEM from 2 separate experiments done in duplicate. *p<0.05
HepG2 cells were kindly supplied by Richard Ross (University of Sheffield). Cells were routinely grown at 37° C. in a 95% humidified atmosphere of 5% CO2 in DMEM/4.5 g per liter glucose supplemented with 10% foetal calf serum (FCS), 100 IU penicillin and 100 μg/ml streptomycin, 2 mM I-glutamine (all GIBCO). Two million cells were seeded on a 10 cm dishes and grown for 48 hours. Cells were lysed in 250 μl of STE buffer (0.32M sucrose, 5 mM Tris, 1 mM EDTA containing protease inhibitors Phenylmethylsulphonyl fluoride (1 mM), benzamidine (5 mM), and leupeptin (10 μg/ml) and sonicated on ice to produce a cell lysate usable in TG2 activity assay.
The same protocol was used to assess TG inhibition in cell lysates by replacing the 25 μl of recombinant protein with 25 μl of cell lysate.

hybridoma supernatant ability to inhibit TG2 activity (human TG2) | Molecule | further results
able to inhibit TG2 activity | DC1: murine monoclonal anti-TG2 IgG, Group 1; VL SEQ ID NO: 70, VH SEQ ID NO: 71 (antibody, V domains shown, DC-1 heavy chain variable region; DC-1 light chain variable region) VH: EVQLVESGGGLVKPGGSLKLSCAASGFTLSTHAMSWVRQTPEKRLEWVATISSGGRSTYYPDSVKGRFTISRDNVKNTLYLQLSSLRSEDTAVYFCARLISTYWGQGTTLTVSS VL: DITMTQSPSSIYASLGERVTITCKASQDINSYLTWFQQKPGKSPKILIYLVNRLVDGVPSRFSGSGSGQDYALTISSLEYEDMGIYYCLQYDDFPYTFGGGTKLEIK | IC50 against human TG2 (human TG2; amount of IgG in the reaction that would inhibit 1 ng of TG2, 100 ng human TG2): 0.011 µg/mL; inhibition of extracellular TG activity ([1]; 4 ng/ul in the culture media): 55%; inhibition of extracellular TG2 in human HK-2 cells (in words) ([1]; applied to the culture media): able to inhibit TG2 successfully; inhibition of TG2 in human Hep2G cells (in words) [2]: able to inhibit TG2 successfully
able to inhibit TG2 activity | EH6: murine monoclonal anti-TG2 IgG, Group 1; VH and VK in FIG. 22 (antibody, V domains shown) VH: EVQLQQSGPELVKPGASVKMSCKASGYTFTSYVMHWVKQKPGQGLEWIGFINPYNDGTKYNEKFKGKATLTSDKASTTAYMELSSLTSEDSAVYYCARFSSGYWGQGTTLTVSS VL: DVLMTQTPLSLPVSLGDQASISCRSSQSIVHSNGNTYLEWYLQKPGQSPKLLIYKVSNRFSGVPDRFSGSGSGTDFTLKISRVGAEDLGVYYCLQVSHVPFTFGSGTKLEIK | 
able to inhibit TG2 activity | AH3: murine TG2 inhibitory monoclonal antibody; VH and VK in FIG. 24 (antibody, V domains shown) VH: EVQLQQSGPELVKPGASVKMSCRASGYTFTTYVIHWVKQKPGQGLEWIGYINPYNDGARYNEKFKGKATLTSDKSSTTAYMELSSLTSEDSAVYYCARLSSDYWGQGTTLTVSS VL: DVLMTQNPLSLPVSLGDQASISCRSSRSIEHSNGNTYLEWYLQKPGQSPKFLIYKVSNRFSGVPDRFSGSGSGTDFTLRISSVEAEDLGVYYCFQGSHVPFTFGGGTKLEIK | 
able to inhibit TG2 activity | JE12: murine monoclonal anti-TG2 IgG, Group 1; VH and VK in FIG. 21 (antibody, V domains shown) VH: EVQLQQSGPELVKPGASVKMSCKASGYRFTSYVMHWVKQKSGQGLEWIGYINPYNDGAKYNEKFKGKATLTSDKSSSTAYMELSSLTSEDSAVYYCARLSSDYWGQGTTLTVSS VL: DVLMTQNPLSLPVSLGDQASISCRSSQSIEHINGNTYLEWYLQKPGQSPKFLIYKVSNRFSGVPDRFSGSGSGTDFTLRISRVEAEDLGIYYCFQGSHVPFTFGGGTKLEIK | 
able to inhibit TG2 activity | AG9: murine TG2 inhibitory monoclonal antibody; VH and VK in FIG. 23 (antibody, V domains shown) VH: EVQLQQSGPELVKPGASVKMSCRASGYTFTTYVIHWVKQKPGQGLEWIGYINPYNDGARYNEKFKGKATLTSDKSSTTAYMELSSLTSEDSAVYYCARLSSDYWGQGTTLTVSS VL: DVLMTQNPLSLPVSLGDQASISCRSSRSIEHSNGNTYLEWYLQKPGQSPKFLIYKVSNRFSGVPDRFSGSGSGTDFTLRISSVEAEDLGVYYCFQGSHVPFTFGGGTKLEIK | 
able to inhibit TG2 activity | BB7: murine monoclonal anti-TG2 IgG, Group 1; VL SEQ ID NO: 60, VH SEQ ID NO: 61 (antibody, V domains shown, BB-7 heavy chain variable region; BB-7 light chain variable region) VH: AVQLVESGGGLVKPGGSLKLSCAASGIIFSSSAMSWVRQTPEKRLEWVATISSGGRSTYYPDSVKGRFTVSRDSAKNTLYLQMDSLRSEDTAIYYCAKLISPYWGQGTTLTVSS VL: AIKMTQSPSSMYASLGERVIITCKASQDINSYLTWFQQKPGKSPKTLIYLTNRLMDGVPSRFSGSGSGQEFLLTISGLEHEDMGIYYCLQYVDFPYTFGGGTKLEIK | inhibition of TG2 activity in HepG2 homogenate ([2]; 0.5 μg of antibody, 45 ug lysate protein): 90%
